Results published in IntAct's records for PubMed 16959574.

Target: gsk3b_human GSK3B (UniProt P49841)
Sequence (P49841 whole entry, looked up): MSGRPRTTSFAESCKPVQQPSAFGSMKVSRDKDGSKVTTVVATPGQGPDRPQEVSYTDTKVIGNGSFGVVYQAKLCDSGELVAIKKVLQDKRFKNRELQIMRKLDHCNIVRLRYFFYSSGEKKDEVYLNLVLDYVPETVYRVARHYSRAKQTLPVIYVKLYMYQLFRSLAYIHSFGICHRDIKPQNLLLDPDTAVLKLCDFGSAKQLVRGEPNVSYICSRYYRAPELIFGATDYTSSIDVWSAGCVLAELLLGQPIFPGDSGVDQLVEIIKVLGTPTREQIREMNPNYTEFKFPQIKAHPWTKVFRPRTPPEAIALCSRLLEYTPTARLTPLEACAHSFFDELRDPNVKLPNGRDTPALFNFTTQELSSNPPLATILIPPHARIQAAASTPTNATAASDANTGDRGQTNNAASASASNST

Tuberin (Rattus norvegicus (Rat)), P49816 S1389A, sequence (P49816 whole entry S1389A): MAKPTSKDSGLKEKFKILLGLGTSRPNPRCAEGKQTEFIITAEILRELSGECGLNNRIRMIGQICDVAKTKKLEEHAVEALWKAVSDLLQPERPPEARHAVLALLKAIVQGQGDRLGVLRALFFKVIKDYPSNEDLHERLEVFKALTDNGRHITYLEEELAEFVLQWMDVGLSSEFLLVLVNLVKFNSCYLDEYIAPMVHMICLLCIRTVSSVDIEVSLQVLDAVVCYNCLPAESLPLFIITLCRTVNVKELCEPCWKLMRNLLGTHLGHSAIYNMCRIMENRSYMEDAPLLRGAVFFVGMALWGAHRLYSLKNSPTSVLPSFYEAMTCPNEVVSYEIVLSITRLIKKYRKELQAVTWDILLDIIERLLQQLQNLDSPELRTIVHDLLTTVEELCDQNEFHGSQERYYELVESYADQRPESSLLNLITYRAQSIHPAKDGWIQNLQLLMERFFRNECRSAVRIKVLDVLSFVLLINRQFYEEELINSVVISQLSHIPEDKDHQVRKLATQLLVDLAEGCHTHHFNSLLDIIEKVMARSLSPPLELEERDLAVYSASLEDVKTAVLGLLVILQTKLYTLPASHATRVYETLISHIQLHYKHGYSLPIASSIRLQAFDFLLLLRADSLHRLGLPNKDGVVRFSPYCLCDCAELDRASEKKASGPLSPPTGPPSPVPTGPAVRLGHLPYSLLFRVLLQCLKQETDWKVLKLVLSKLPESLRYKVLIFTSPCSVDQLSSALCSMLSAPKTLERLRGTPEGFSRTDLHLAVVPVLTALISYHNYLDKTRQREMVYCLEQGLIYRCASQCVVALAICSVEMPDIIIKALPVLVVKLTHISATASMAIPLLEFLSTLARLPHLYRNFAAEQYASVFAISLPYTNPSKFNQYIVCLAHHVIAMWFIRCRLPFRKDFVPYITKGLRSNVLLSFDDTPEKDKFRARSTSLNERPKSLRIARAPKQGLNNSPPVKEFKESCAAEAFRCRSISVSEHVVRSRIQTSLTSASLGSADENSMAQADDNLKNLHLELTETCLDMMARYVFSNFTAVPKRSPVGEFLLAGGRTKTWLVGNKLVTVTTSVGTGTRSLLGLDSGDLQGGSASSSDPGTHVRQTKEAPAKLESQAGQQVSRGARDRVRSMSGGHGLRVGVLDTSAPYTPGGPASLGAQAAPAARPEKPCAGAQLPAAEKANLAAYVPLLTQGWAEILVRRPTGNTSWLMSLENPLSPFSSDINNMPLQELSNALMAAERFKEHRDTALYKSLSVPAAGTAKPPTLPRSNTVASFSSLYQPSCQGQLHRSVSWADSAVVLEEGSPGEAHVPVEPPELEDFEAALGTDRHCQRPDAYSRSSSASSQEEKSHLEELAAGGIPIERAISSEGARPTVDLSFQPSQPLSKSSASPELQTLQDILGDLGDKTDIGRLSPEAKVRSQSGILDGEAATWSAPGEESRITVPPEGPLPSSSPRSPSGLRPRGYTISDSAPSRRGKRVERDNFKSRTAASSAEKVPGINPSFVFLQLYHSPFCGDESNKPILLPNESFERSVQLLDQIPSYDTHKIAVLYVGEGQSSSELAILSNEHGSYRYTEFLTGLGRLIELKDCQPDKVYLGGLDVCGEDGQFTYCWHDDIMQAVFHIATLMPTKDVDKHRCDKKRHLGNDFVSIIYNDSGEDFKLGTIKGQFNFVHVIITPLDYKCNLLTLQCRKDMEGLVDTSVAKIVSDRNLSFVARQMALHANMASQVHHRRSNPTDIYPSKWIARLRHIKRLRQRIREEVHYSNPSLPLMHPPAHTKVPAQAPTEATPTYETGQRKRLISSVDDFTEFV

effect of a mutation on the interaction: disrupting interaction
Substance: Tuberin (Rattus norvegicus (Rat)), P49816 S1389A
